# From paper doi:10.1101/2023.08.11.549911
# Key:
# [1] = target: Leucine-rich repeat kinase 2 (LRRK2), full-length wild type, N-terminal Strep-FLAG (SF) tagged (human) (UniProt Q5S007); experiment: mass photometry; conditions: remark: other sources report otherwise
# [2] = target: LRRK2 R1441G, full-length, N-terminal Strep-FLAG (SF) tagged (human) (UniProt Q5S007); experiment: native gel or EMSA
# [3] = target: LRRK2 G2019S, full-length, N-terminal Strep-FLAG (SF) tagged (human) (UniProt Q5S007); experiment: native gel or EMSA; conditions: remark: other sources report otherwise
substance,measurement,setting,value
"Leucine-rich repeat kinase 2 (LRRK2), full-length wild type, N-terminal Strep-FLAG (SF) tagged, Q5S007 1-2527",Kd,[1],200 nM
"LRRK2 R1441G, full-length, N-terminal Strep-FLAG (SF) tagged, Q5S007 1-2527",stoichiometry N,[2],2
"LRRK2 G2019S, full-length, N-terminal Strep-FLAG (SF) tagged, Q5S007 1-2527",stoichiometry N,[3],2
